Data: IntAct's records for PubMed 29892012

B1: Keratin, type I cuticular Ha8 (Homo sapiens), O76015 (parent)
chain: MTSSYSSSSCPLGCTMAPGARNVSVSPIDIGCQPGAEANIAPMCLLANVAHANRVRVGSTPLGRPSLCLPPTCHTACPLPGTCHIPGNIGICGAYGENTLNGHEKETMQFLNDRLANYLEKVRQLEQENAELEATLLERSKCHESTVCPDYQSYFHTIEELQQKILCSKAENARLIVQIDNAKLAADDFRIKLESERSLRQLVEADKCGTQKLLDDATLAKADLEAQQESLKEEQLSLKSNHEQEVKILRSQLGEKLRIELDIEPTIDLNRVLGEMRAQYEAMLETNRQDVEQWFQAQSEGISLQDMSCSEELQCCQSEILELRCTVNALEVERQAQHTLKDCLQNSLCEAEDRFGTELAQMQSLISNVEEQLSEIRADLERQNQEYQVLLDVKTRLENEIATYRNLLESEDCKLPCNPCSTSPSCVTAPCAPRPSCGPCTTCGPTCGASTTGSRF
partner: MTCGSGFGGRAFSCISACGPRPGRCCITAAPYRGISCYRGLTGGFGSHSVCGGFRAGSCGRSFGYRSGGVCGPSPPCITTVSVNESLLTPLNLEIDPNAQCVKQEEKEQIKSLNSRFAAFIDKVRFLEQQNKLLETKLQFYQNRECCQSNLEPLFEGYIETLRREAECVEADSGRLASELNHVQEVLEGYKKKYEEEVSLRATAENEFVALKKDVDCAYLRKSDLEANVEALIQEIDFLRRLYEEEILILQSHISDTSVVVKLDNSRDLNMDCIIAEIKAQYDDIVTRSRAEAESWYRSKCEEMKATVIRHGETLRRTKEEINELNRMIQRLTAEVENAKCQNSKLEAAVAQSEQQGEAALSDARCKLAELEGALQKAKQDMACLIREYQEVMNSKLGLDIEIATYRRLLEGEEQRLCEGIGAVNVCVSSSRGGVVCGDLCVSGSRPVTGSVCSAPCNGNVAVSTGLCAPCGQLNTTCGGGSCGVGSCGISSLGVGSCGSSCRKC
B2: Forkhead box protein S1 (Homo sapiens), O43638 (parent)
chain: MQQQPLPGPGAPTTEPTKPPYSYIALIAMAIQSSPGQRATLSGIYRYIMGRFAFYRHNRPGWQNSIRHNLSLNECFVKVPRDDRKPGKGSYWTLDPDCHDMFEHGSFLRRRRRFTRQTGAEGTRGPAKARRGPLRATSQDPGVPNATTGRQCSFPPELPDPKGLSFGGLVGAMPASMCPATTDGRPRPPMEPKEISTPKPACPGELPVATSSSSCPAFGFPAGFSEAESFNKAPTPVLSPESGIGSSYQCRLQALNFCMGADPGLEHLLASAAPSPAPPTPPGSLRAPLPLPTDHKEPWVAGGFPVQGGSGYPLGLTPCLYRTPGMFFFE
B3: UBX domain-containing protein 6 (Homo sapiens), Q9BZV1 (parent)
chain: MKKFFQEFKADIKFKSAGPGQKLKESVGEKAHKEKPNQPAPRPPRQGPTNEAQMAAAAALARLEQKQSRAWGPTSQDTIRNQVRKELQAEATVSGSPEAPGTNVVSEPREEGSAHLAVPGVYFTCPLTGATLRKDQRDACIKEAILLHFSTDPVAASIMKIYTFNKDQDRVKLGVDTIAKYLDNIHLHPEEEKYRKIKLQNKVFQERINCLEGTHEFFEAIGFQKVLLPAQDQEDPEEFYVLSETTLAQPQSLERHKEQLLAAEPVRAKLDRQRRVFQPSPLASQFELPGDFFNLTAEEIKREQRLRSEAVERLSVLRTKAMREKEEQRGLRKYNYTLLRVRLPDGCLLQGTFYARERLGAVYGFVREALQSDWLPFELLASGGQKLSEDENLALNECGLVPSALLTFSWDMAVLEDIKAAGAEPDSILKPELLSAIEKLL
partner: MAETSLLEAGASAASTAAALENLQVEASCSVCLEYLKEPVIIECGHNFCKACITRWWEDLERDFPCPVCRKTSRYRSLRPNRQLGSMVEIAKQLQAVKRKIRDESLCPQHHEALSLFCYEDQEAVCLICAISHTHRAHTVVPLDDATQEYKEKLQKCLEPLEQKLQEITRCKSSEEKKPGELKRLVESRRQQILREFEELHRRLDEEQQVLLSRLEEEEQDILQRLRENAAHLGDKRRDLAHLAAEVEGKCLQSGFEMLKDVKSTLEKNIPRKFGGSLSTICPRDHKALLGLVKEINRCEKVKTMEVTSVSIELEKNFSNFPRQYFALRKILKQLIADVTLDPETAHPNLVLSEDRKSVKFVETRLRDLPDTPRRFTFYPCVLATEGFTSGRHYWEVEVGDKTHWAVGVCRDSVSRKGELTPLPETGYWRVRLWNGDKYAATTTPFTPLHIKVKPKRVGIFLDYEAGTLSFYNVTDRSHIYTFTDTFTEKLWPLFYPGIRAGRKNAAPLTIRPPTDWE
B4: Casein kinase II subunit alpha (Homo sapiens), P68400 (parent)
chain: MSGPVPSRARVYTDVNTHRPREYWDYESHVVEWGNQDDYQLVRKLGRGKYSEVFEAINITNNEKVVVKILKPVKKKKIKREIKILENLRGGPNIITLADIVKDPVSRTPALVFEHVNNTDFKQLYQTLTDYDIRFYMYEILKALDYCHSMGIMHRDVKPHNVMIDHEHRKLRLIDWGLAEFYHPGQEYNVRVASRYFKGPELLVDYQMYDYSLDMWSLGCMLASMIFRKEPFFHGHDNYDQLVRIAKVLGTEDLYDYIDKYNIELDPRFNDILGRHSRKRWERFVHSENQHLVSPEALDFLDKLLRYDHQSRLTAREAMEHPYFYTVVKDQARMGSSSMPGGSTPVSSANMMSGISSVPTPSPLGPLAGSPVIAAANPLGMPVPAAAGAQQ
B5: Zinc finger protein 64 (Homo sapiens), Q9NTW7 (parent)
chain: MNASSEGESFAGSVQIPGGTTVLVELTPDIHICGICKQQFNNLDAFVAHKQSGCQLTGTSAAAPSTVQFVSEETVPATQTQTTTRTITSETQTITVSAPEFVFEHGYQTYLPTESNENQTATVISLPAKSRTKKPTTPPAQKRLNCCYPGCQFKTAYGMKDMERHLKIHTGDKPHKCEVCGKCFSRKDKLKTHMRCHTGVKPYKCKTCDYAAADSSSLNKHLRIHSDERPFKCQICPYASRNSSQLTVHLRSHTASELDDDVPKANCLSTESTDTPKAPVITLPSEAREQMATLGERTFNCCYPGCHFKTVHGMKDLDRHLRIHTGDKPHKCEFCDKCFSRKDNLTMHMRCHTSVKPHKCHLCDYAAVDSSSLKKHLRIHSDERPYKCQLCPYASRNSSQLTVHLRSHTGDTPFQCWLCSAKFKISSDLKRHMIVHSGEKPFKCEFCDVRCTMKANLKSHIRIKHTFKCLHCAFQGRDRADLLEHSRLHQADHPEKCPECSYSCSSAAALRVHSRVHCKDRPFKCDFCSFDTKRPSSLAKHVDKVHRDEAKTENRAPLGKEGLREGSSQHVAKIVTQRAFRCETCGASFVRDDSLRCHKKQHSDQSENKNSDLVTFPPESGASGQLSTLVSVGQLEAPLEPSQDL
partner: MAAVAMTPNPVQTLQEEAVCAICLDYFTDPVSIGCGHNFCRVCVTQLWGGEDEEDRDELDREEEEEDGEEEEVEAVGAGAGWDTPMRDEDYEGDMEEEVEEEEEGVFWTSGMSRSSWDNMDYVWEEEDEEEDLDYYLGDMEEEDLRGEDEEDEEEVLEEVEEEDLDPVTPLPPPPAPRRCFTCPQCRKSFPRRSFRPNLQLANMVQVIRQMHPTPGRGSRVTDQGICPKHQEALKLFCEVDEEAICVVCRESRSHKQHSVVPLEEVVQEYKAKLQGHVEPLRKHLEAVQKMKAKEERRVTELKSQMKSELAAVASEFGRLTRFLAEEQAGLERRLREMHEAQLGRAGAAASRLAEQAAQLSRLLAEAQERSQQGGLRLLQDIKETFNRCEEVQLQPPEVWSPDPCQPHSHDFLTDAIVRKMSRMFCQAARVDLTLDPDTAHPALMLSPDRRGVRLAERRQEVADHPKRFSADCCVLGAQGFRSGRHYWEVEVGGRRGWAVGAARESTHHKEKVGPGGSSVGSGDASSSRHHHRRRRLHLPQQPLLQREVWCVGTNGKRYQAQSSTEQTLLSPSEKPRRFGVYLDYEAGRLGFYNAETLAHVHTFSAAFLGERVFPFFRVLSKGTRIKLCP
B6: Keratin, type I cuticular Ha8 (Homo sapiens), O76015 (parent)
chain: B1 chain
partner: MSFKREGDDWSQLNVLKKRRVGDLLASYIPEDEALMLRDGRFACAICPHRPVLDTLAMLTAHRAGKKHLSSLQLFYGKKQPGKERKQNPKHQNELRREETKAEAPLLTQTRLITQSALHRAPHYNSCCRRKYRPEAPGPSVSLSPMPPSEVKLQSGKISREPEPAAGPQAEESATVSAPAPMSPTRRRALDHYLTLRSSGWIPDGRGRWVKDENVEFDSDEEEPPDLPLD
B7: Vacuolar protein-sorting-associated protein 25 (Homo sapiens), Q9BRG1 (parent)
chain: MAMSFEWPWQYRFPPFFTLQPNVDTRQKQLAAWCSLVLSFCRLHKQSSMTVMEAQESPLFNNVKLQRKLPVESIQIVLEELRKKGNLEWLDKSKSSFLIMWRRPEEWGKLIYQWVSRSGQNNSVFTLYELTNGEDTEDEEFHGLDEATLLRALQALQQEHKAEIITVSDGRGVKFF
partner: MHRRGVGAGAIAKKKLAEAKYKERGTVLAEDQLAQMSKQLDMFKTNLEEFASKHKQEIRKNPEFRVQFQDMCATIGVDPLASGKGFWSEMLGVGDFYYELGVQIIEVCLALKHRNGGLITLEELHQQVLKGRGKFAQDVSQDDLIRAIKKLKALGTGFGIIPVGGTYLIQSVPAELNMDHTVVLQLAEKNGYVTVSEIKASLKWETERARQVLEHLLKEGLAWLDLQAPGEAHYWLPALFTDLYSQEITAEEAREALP

Variants of: B1
Settings: with krt81_human KRT81, Q14533

Variant	effect of a mutation on the interaction
D306A	with no effect

Variants of: B1
Settings: with krt81_human KRT81, Q14533
Remark: another data set of the same source

Variant	effect of a mutation on the interaction
N270K	with no effect

Variants of: B2
Settings: with rbpms_human RBPMS

Variant	effect of a mutation on the interaction
T147M	with no effect

Variants of: B3
Settings: with tri39_human TRIM39, Q9HCM9

Variant	effect of a mutation on the interaction
E391K	disrupting interaction strength

Variants of: B4
Settings: with nfya_human NFYA

Variant	effect of a mutation on the interaction
K198R	with no effect

Variants of: B5
Settings: with tri41_human TRIM41, Q8WV44

Variant	effect of a mutation on the interaction
D227E	with no effect

Variants of: B6
Settings: with scnm1_human SCNM1, Q9BWG6

Variant	effect of a mutation on the interaction
D306A	with no effect

Variants of: B6
Settings: with scnm1_human SCNM1, Q9BWG6
Remark: another data set of the same source

Variant	effect of a mutation on the interaction
N270K	with no effect

Variants of: B7
Settings: with snf8_human SNF8, Q96H20

Variant	effect of a mutation on the interaction
P58Q	with no effect
